According to patent US4587340A, “Biopterin analogs” (Burroughs Wellcome Co., priority 1984, dated 1986):

Experiments:
[1] = substrate: COCC1CNc2nc(N)[nH]c(=O)c2N1; assay: Phenylalanine hydroxylase cofactor assay; type: biochemical; details: other: rat liver enzyme
[2] = substrate: C[C@H](O)[C@H](O)[C@H]1CNc2nc(N)[nH]c(=O)c2N1; assay: purified protein, by the assay type
[3] = substrate: COCC1CNc2nc(N)[nH]c(=O)c2N1; assay: Tryptophan hydroxylase cofactor assay; type: biochemical
Description: Tryptophan hydroxylase was assayed according to a modification of the method of Renson J., et al (Biochem. Biophys. Acta 25: 504 (1966)).

[4] = substrate: C[C@H](O)[C@H](O)[C@H]1CNc2nc(N)[nH]c(=O)c2N1; assay: cells, lysate or membranes named
[5] = substrate: COCC1CNc2nc(N)[nH]c(=O)c2N1; assay: Dihydropteridine reductase assay; type: biochemical; details: other: quinonoid dihydro form of the pterin
Description: Dihydropteridine reductase was assayed by the method of Craine, et al., (J. Biol. Chem., 247, 6082 (1972)).

B1: Phenylalanine hydroxylase (Rattus norvegicus) (protein)
chain: MAAVVLENGVLSRKLSDFGQETSYIEDNSNQNGAISLIFSLKEEVGALAKVLRLFEENDINLTHIESRPSRLNKDEYEFFTYLDKRTKPVLGSIIKSLRNDIGATVHELSRDKEKNTVPWFPRTIQELDRFANQILSYGAELDADHPGFKDPVYRARRKQFADIAYNYRHGQPIPRVEYTEEEKQTWGTVFRTLKALYKTHACYEHNHIFPLLEKYCGFREDNIPQLEDVSQFLQTCTGFRLRPVAGLLSSRDFLGGLAFRVFHCTQYIRHGSKPMYTPEPDICHELLGHVPLFSDRSFAQFSQEIGLASLGAPDEYIEKLATIYWFTVEFGLCKEGDSIKAYGAGLLSSFGELQYCLSDKPKLLPLELEKTACQEYSVTEFQPLYYVAESFSDAKEKVRTFAATIPRPFSVRYDPYTQRVEVLDNTQQLKILADSINSEVGILCNALQKIKS
notes: Phenylalanine hydroxylase was prepared from rat liver using hydrophobic chromatography; from tissue; host or cells: rat liver
Km [1]: 12.9 µM
Km ([2]; other: rat liver enzyme): 7.9 µM

B2: Tryptophan hydroxylase (Rattus norvegicus) (protein)
chain: MQPAMMMFSSKYWARRGLSLDSAVPEEHQILGGLTQNKATASKSEDKRSGKDTSESSKTAVVFSLKNEVGGLVRALRLFQEKHVNMLHIESRRSRRRSSEVEIFVDCECGKTEFNELIQLLKFQTTIVTLNPPDNIWTEEEELEDVPWFPRKISELDRCSHRVLMYGTELDADHPGFKDNVYRQRRKYFVDVAMGYKYGQPIPRVEYTEEETKTWGVVFRELSKLYPTHACREYLKNFPLLTKYCGYREDNVPQLEDVSMFLKERSGFTVRPVAGYLSPRDFLAGLAYRVFHCTQYVRHGSDPLYTPEPDTCHELLGHVPLLADPKFAQFSQEIGLASLGASDEDVQKLATCYFFTIEFGLCKQEGQLRAYGAGLLSSIGELKHALSDKACVKAFDPKTTCLQECLITTFQDAYFVSESFEEAKEKMRDFAKSITRPFSVYFNPYTQSIEILKDTRSIENVVQDLRSDLNTVCDALNKMNQYLGI
notes: The preparation of tryptophan hydroxylase was a crude 30,000xg supernatant; from tissue
Km [3]: 103 µM
Km [4]: 82 µM

B3: Dihydropteridine reductase (Homo sapiens) (protein)
chain: MAAAAAAGEARRVLVYGGRGALGSRCVQAFRARNWWVASVDVVENEEASASIIVKMTDSFTEQADQVTAEVGKLLGEEKVDAILCVAGGWAGGNAKSKSLFKNCDLMWKQSIWTSTISSHLATKHLKEGGLLTLAGAKAALDGTPGMIGYGMAKGAVHQLCQSLAGKNSGMPPGAAAIAVLPVTLDTPMNRKSMPEADFSSWTPLEFLVETFHDWITGKNRPSSGSLIQVVTTEGRTELTPAYF
Km ([2]; other: quinonoid dihydro form of the pterin): 1.8 µM
Km [5]: 7 µM
